Results reported in the supplement of paper PMC6757056.
± gives the standard deviation of the averaged measurements.

B1: library; a variant is named by its letters at N, in order (parent)
chain: GCUGUCACCGGUGCUUGGUACGUUAUAUUCAGCCGGUCUGAUGAGUCUNNNNNNAGACGAAACAGC

Experiments:
(6R,S)-folinic acid [1] = variants of: B1; assay: FACS-Seq fitted mean relative fluorescence mCherry/BFP without ligand (log10 relative fluorescence); HEK293T overexpressing SLC46A1; higher = higher reporter protein expression; conditions: without (6R,S)-folinic acid; ligand present: no
Procedure: (§1)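 Hammerhead (sTRSV) ribozyme switch libraries with a ligand aptamer grafted on stem I and a randomized N4-6 loop II, cloned into the 3' UTR of mCherry and transiently transfected into HEK293T cells; RNA-Seq 72 h post transfection with ligand added 1 h before transfection; RNA read count / plasmid DNA read count normalized to the non-cleaving sTRSVctl (x100), log10; sequences with >100 DNA reads. FACS-Seq: lentiviral library sorted into 6 bins after 48 h ligand, log-normal fit mean of mCherry/BFP scaled to controls. Printed sequences are partial switch sequences.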

(6R,S)-folinic acid [2] = variants of: B1; assay: normalized RNA/DNA level without ligand (relative to sTRSVctl = 100) (log10 (% of sTRSVctl)); HEK293T overexpressing SLC46A1; higher = less ribozyme self-cleavage, higher mRNA level; conditions: without (6R,S)-folinic acid; ligand present: no
Procedure: as §1

(6R,S)-folinic acid [3] = variants of: B1; assay: FACS-Seq fitted mean relative fluorescence mCherry/BFP with ligand (log10 relative fluorescence); HEK293T overexpressing SLC46A1; ligand concentration (+) FACS-Seq: 6 mM; higher = higher reporter protein expression; conditions: with (6R,S)-folinic acid; ligand present: yes
Procedure: as §1

(6R,S)-folinic acid [4] = variants of: B1; assay: normalized RNA/DNA level with ligand (relative to sTRSVctl = 100) (log10 (% of sTRSVctl)); HEK293T overexpressing SLC46A1; ligand concentration (+) RNA-Seq: 6 mM; higher = less ribozyme self-cleavage, higher mRNA level; conditions: with (6R,S)-folinic acid; ligand present: yes
Procedure: as §1

Row | Variant | FACS-Seq fitted mean (log10) ((6R,S)-folinic acid [1]) | normalized RNA/DNA level without ligand (log10) ((6R,S)-folinic acid [2]) | FACS-Seq fitted mean (log10) ((6R,S)-folinic acid [3]) | normalized RNA/DNA level with ligand (log10) ((6R,S)-folinic acid [4])
1 | GCUGUCACCGGUGCUUGGUACGUUAUAUUCAGCCGGUCUGAUGAGUCUAAACUGAGACGAAACAGC [AAACUG] | 0.318 ± 0.15 | 1.933 ± 0.0021 | 0.151 ± 0.091 | 2 ± 0.037
2 | GCUGUCACCGGUGCUUGGUACGUUAUAUUCAGCCGGUCUGAUGAGUCUUAACGGAGACGAAACAGC [UAACGG] | 0.142 ± 0.02 | 1.705 ± 0.011 | 0.534 ± 0.11 | 1.95 ± 0.034
3 | GCUGUCACCGGUGCUUGGUACGUUAUAUUCAGCCGGUCUGAUGAGUCUUAACGAAGACGAAACAGC [UAACGA] | 0.256 ± 0.05 | 1.93 ± 0.0022 | 0.34 ± 0.11 | 2.01 ± 0.036
4 | GCUGUCACCGGUGCUUGGUACGUUAUAUUCAGCCGGUCUGAUGAGUCUUAACGCAGACGAAACAGC [UAACGC] | 0.334 ± 0.0089 | 1.993 ± 0.008 | 0.0549 ± 0.066 | 2.02 ± 0.045
5 | GCUGUCACCGGUGCUUGGUACGUUAUAUUCAGCCGGUCUGAUGAGUCUAAACGUAGACGAAACAGC [AAACGU] | 0.248 ± 0.096 | 1.966 ± 0.011 | 0.326 ± 0.22 | 2 ± 0.024
6 | GCUGUCACCGGUGCUUGGUACGUUAUAUUCAGCCGGUCUGAUGAGUCUAAACGGAGACGAAACAGC [AAACGG] | 0.359 ± 0.076 | 1.903 ± 0.013 | 0.384 ± 0.1 | 2.006 ± 0.016
7 | GCUGUCACCGGUGCUUGGUACGUUAUAUUCAGCCGGUCUGAUGAGUCUAAACGAAGACGAAACAGC [AAACGA] | 0.186 ± 0.039 | 2 ± 0.018 | 0.192 ± 0.16 | 2.03 ± 0.026
8 | GCUGUCACCGGUGCUUGGUACGUUAUAUUCAGCCGGUCUGAUGAGUCUGAAGAAAGACGAAACAGC [GAAGAA] | -0.708 ± 0.014 | 1.973 ± 0.0039 | -0.827 ± 0.004 | 2.03 ± 0.04
9 | GCUGUCACCGGUGCUUGGUACGUUAUAUUCAGCCGGUCUGAUGAGUCUGAACCUAGACGAAACAGC [GAACCU] | -0.507 ± 0.14 | 2.02 ± 0.0076 | -0.0321 ± 0.22 | 2.02 ± 0.04
10 | GCUGUCACCGGUGCUUGGUACGUUAUAUUCAGCCGGUCUGAUGAGUCUCAACGAAGACGAAACAGC [CAACGA] | 0.682 ± 0.03 | 2.008 ± 0.0085 | 0.653 ± 0.17 | 2.005 ± 0.018
11 | GCUGUCACCGGUGCUUGGUACGUUAUAUUCAGCCGGUCUGAUGAGUCUUAACUGAGACGAAACAGC [UAACUG] | 0.401 ± 0.0068 | 1.846 ± 0.015 | 0.499 ± 0.1 | 2 ± 0.024
12 | GCUGUCACCGGUGCUUGGUACGUUAUAUUCAGCCGGUCUGAUGAGUCUUAACUAAGACGAAACAGC [UAACUA] | 0.248 ± 0.065 | 1.98 ± 0.027 | 0.41 ± 0.11 | 2.03 ± 0.028
13 | GCUGUCACCGGUGCUUGGUACGUUAUAUUCAGCCGGUCUGAUGAGUCUUAACUUAGACGAAACAGC [UAACUU] | 0.511 ± 0.0079 | 1.994 ± 0.011 | 0.408 ± 0.12 | 2 ± 0.045
14 | GCUGUCACCGGUGCUUGGUACGUUAUAUUCAGCCGGUCUGAUGAGUCUCAAGAAAGACGAAACAGC [CAAGAA] | 0.425 ± 0.21 | 1.95 ± 0.0095 | 0.427 ± 0.2 | 2 ± 0.024
15 | GCUGUCACCGGUGCUUGGUACGUUAUAUUCAGCCGGUCUGAUGAGUCUAAACCAAGACGAAACAGC [AAACCA] | 0.226 ± 0.23 | 2 ± 0.01 | 0.0655 ± 0.071 | 2 ± 0.03
16 | GCUGUCACCGGUGCUUGGUACGUUAUAUUCAGCCGGUCUGAUGAGUCUGAACGCAGACGAAACAGC [GAACGC] | 0.22 ± 0.11 | 1.946 ± 0.0053 | 0.118 ± 0.03 | 1.99 ± 0.022
17 | GCUGUCACCGGUGCUUGGUACGUUAUAUUCAGCCGGUCUGAUGAGUCUGAACGGAGACGAAACAGC [GAACGG] | 0.0676 ± 0.01 | 1.94 ± 0.032 | 0.104 ± 0.12 | 2.018 ± 0.019
18 | GCUGUCACCGGUGCUUGGUACGUUAUAUUCAGCCGGUCUGAUGAGUCUGAACGAAGACGAAACAGC [GAACGA] | 0.313 ± 0.13 | 1.997 ± 0.012 | 0.623 ± 0.36 | 2.031 ± 0.02
19 | GCUGUCACCGGUGCUUGGUACGUUAUAUUCAGCCGGUCUGAUGAGUCUUAACCAAGACGAAACAGC [UAACCA] | 0.441 ± 0.11 | 2.007 ± 0.0037 | 0.274 ± 0.073 | 1.98 ± 0.0045
20 | GCUGUCACCGGUGCUUGGUACGUUAUAUUCAGCCGGUCUGAUGAGUCUUAACCGAGACGAAACAGC [UAACCG] | 0.215 ± 0.047 | 1.8952 ± 0.00059 | 0.522 ± 0.21 | 2.01 ± 0.028
21 | GCUGUCACCGGUGCUUGGUACGUUAUAUUCAGCCGGUCUGAUGAGUCUUAAGAAAGACGAAACAGC [UAAGAA] | 0.023 ± 0.078 | 1.882 ± 0.011 | -0.19 ± 0.37 | 1.96 ± 0.022
